± gives the uncertainty stated by the source.

First the molecules themselves.
B1: library; numbered along this chain (parent)
chain: MEVVDPQQLGMFTEGELMSVGMDTFIHRIDSTEVIYQPRRKRAKLIGKYLMGDLLGEGSYGKVKEVLDSETLCRRAVKILKKKKLRRIPNGEANVKKEIQLLRRLRHKNVIQLVDVLYNEEKQKMYMVMEYCVCGMQEMLDSVPEKRFPVCQAHGYFCQLIDGLEYLHSQGIVHKDIKPGNLLLTTGGTLKISDLGVAEALHPFAADDTCRTSQGSPAFQPPEIANGLDTFSGFKVDIWSAGVTLYNITTGLYPFEGDNIYKLFENIGKGSYAIPGDCGPPLSDLLKGMLEYEPAKRFSIRQIRQHSWFRKKHPPAEAPVPIPPSPDTKDRWRSMTVVPYLEDLHGADEDEDLFDIEDDIIYTQDFTVPGQVPEEEASHNGQRRGLPKAVCMNGTEAAQLSTKSRAEGRAPNPARKACSASSKIRRLSACKQQ

This series covers variants of B1. Kind of series: STK11 functional score (HeLa growth suppression), rescaled enrichment; synonymous median = 1, nonsense median = 0 (normalised score). The conditions noted are these: with HeLa; variant type: missense. As for the experimental part: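 Deep mutational scan (TileSeq/POPCode codon randomisation) of full-length codon-optimised STK11 cDNA integrated at a Bxb1 landing pad (AAVS1) in HeLa cells. Restoring functional STK11 suppresses HeLa proliferation. Variant frequencies were measured by NGS before and after about two weeks of growth. The error-corrected enrichment log-ratio was rescaled so that synonymous median = 1 and nonsense median = 0, scores above 1 were compressed, and codon-level and three biological replicate scores were combined; error is the bootstrapped standard error. Scale: synonymous median = 1, nonsense median = 0; below 0.5 = damaging.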
As to MEVVDPQQLGMFTEGELMSVGMDTFIHRIDSTEVIYQPRRKRAKLIGKYLMGDFLGEGSYGKVKEVLDSETLCRRAVKILKKKKLRRIPNGEANVKKEIQLLRRLRHKNVIQLVDVLYNEEKQKMYMVMEYCVCGMQEMLDSVPEKRFPVCQAHGYFCQLIDGLEYLHSQGIVHKDIKPGNLLLTTGGTLKISDLGVAEALHPFAADDTCRTSQGSPAFQPPEIANGLDTFSGFKVDIWSAGVTLYNITTGLYPFEGDNIYKLFENIGKGSYAIPGDCGPPLSDLLKGMLEYEPAKRFSIRQIRQHSWFRKKHPPAEAPVPIPPSPDTKDRWRSMTVVPYLEDLHGADEDEDLFDIEDDIIYTQDFTVPGQVPEEEASHNGQRRGLPKAVCMNGTEAAQLSTKSRAEGRAPNPARKACSASSKIRRLSACKQQ [L54F], the STK11 functional score came to 0.99 ± 0.078.

Regarding MEVVDPQQLGMFTEGELMSVGMDTFIHRIDSTEVIYQPRRKRAKLIGKYLMGDDLGEGSYGKVKEVLDSETLCRRAVKILKKKKLRRIPNGEANVKKEIQLLRRLRHKNVIQLVDVLYNEEKQKMYMVMEYCVCGMQEMLDSVPEKRFPVCQAHGYFCQLIDGLEYLHSQGIVHKDIKPGNLLLTTGGTLKISDLGVAEALHPFAADDTCRTSQGSPAFQPPEIANGLDTFSGFKVDIWSAGVTLYNITTGLYPFEGDNIYKLFENIGKGSYAIPGDCGPPLSDLLKGMLEYEPAKRFSIRQIRQHSWFRKKHPPAEAPVPIPPSPDTKDRWRSMTVVPYLEDLHGADEDEDLFDIEDDIIYTQDFTVPGQVPEEEASHNGQRRGLPKAVCMNGTEAAQLSTKSRAEGRAPNPARKACSASSKIRRLSACKQQ [L54D], the STK11 functional score worked out at 1.14 ± 0.35.

In the case of MEVVDPQQLGMFTEGELMSVGMDTFIHRIDSTEVIYQPRRKRAKLIGKYLMGDALGEGSYGKVKEVLDSETLCRRAVKILKKKKLRRIPNGEANVKKEIQLLRRLRHKNVIQLVDVLYNEEKQKMYMVMEYCVCGMQEMLDSVPEKRFPVCQAHGYFCQLIDGLEYLHSQGIVHKDIKPGNLLLTTGGTLKISDLGVAEALHPFAADDTCRTSQGSPAFQPPEIANGLDTFSGFKVDIWSAGVTLYNITTGLYPFEGDNIYKLFENIGKGSYAIPGDCGPPLSDLLKGMLEYEPAKRFSIRQIRQHSWFRKKHPPAEAPVPIPPSPDTKDRWRSMTVVPYLEDLHGADEDEDLFDIEDDIIYTQDFTVPGQVPEEEASHNGQRRGLPKAVCMNGTEAAQLSTKSRAEGRAPNPARKACSASSKIRRLSACKQQ [L54A], the STK11 functional score came to 0.975 ± 0.29.

MEVVDPQQLGMFTEGELMSVGMDTFIHRIDSTEVIYQPRRKRAKLIGKYLMGDKLGEGSYGKVKEVLDSETLCRRAVKILKKKKLRRIPNGEANVKKEIQLLRRLRHKNVIQLVDVLYNEEKQKMYMVMEYCVCGMQEMLDSVPEKRFPVCQAHGYFCQLIDGLEYLHSQGIVHKDIKPGNLLLTTGGTLKISDLGVAEALHPFAADDTCRTSQGSPAFQPPEIANGLDTFSGFKVDIWSAGVTLYNITTGLYPFEGDNIYKLFENIGKGSYAIPGDCGPPLSDLLKGMLEYEPAKRFSIRQIRQHSWFRKKHPPAEAPVPIPPSPDTKDRWRSMTVVPYLEDLHGADEDEDLFDIEDDIIYTQDFTVPGQVPEEEASHNGQRRGLPKAVCMNGTEAAQLSTKSRAEGRAPNPARKACSASSKIRRLSACKQQ [L54K]: the STK11 functional score is 1.61 ± 0.23.

For MEVVDPQQLGMFTEGELMSVGMDTFIHRIDSTEVIYQPRRKRAKLIGKYLMGDHLGEGSYGKVKEVLDSETLCRRAVKILKKKKLRRIPNGEANVKKEIQLLRRLRHKNVIQLVDVLYNEEKQKMYMVMEYCVCGMQEMLDSVPEKRFPVCQAHGYFCQLIDGLEYLHSQGIVHKDIKPGNLLLTTGGTLKISDLGVAEALHPFAADDTCRTSQGSPAFQPPEIANGLDTFSGFKVDIWSAGVTLYNITTGLYPFEGDNIYKLFENIGKGSYAIPGDCGPPLSDLLKGMLEYEPAKRFSIRQIRQHSWFRKKHPPAEAPVPIPPSPDTKDRWRSMTVVPYLEDLHGADEDEDLFDIEDDIIYTQDFTVPGQVPEEEASHNGQRRGLPKAVCMNGTEAAQLSTKSRAEGRAPNPARKACSASSKIRRLSACKQQ [L54H], the STK11 functional score is 1.15 ± 0.19.

Turning to MEVVDPQQLGMFTEGELMSVGMDTFIHRIDSTEVIYQPRRKRAKLIGKYLMGDGLGEGSYGKVKEVLDSETLCRRAVKILKKKKLRRIPNGEANVKKEIQLLRRLRHKNVIQLVDVLYNEEKQKMYMVMEYCVCGMQEMLDSVPEKRFPVCQAHGYFCQLIDGLEYLHSQGIVHKDIKPGNLLLTTGGTLKISDLGVAEALHPFAADDTCRTSQGSPAFQPPEIANGLDTFSGFKVDIWSAGVTLYNITTGLYPFEGDNIYKLFENIGKGSYAIPGDCGPPLSDLLKGMLEYEPAKRFSIRQIRQHSWFRKKHPPAEAPVPIPPSPDTKDRWRSMTVVPYLEDLHGADEDEDLFDIEDDIIYTQDFTVPGQVPEEEASHNGQRRGLPKAVCMNGTEAAQLSTKSRAEGRAPNPARKACSASSKIRRLSACKQQ [L54G], the STK11 functional score came to 1.22 ± 0.41.

On to MEVVDPQQLGMFTEGELMSVGMDTFIHRIDSTEVIYQPRRKRAKLIGKYLMGDILGEGSYGKVKEVLDSETLCRRAVKILKKKKLRRIPNGEANVKKEIQLLRRLRHKNVIQLVDVLYNEEKQKMYMVMEYCVCGMQEMLDSVPEKRFPVCQAHGYFCQLIDGLEYLHSQGIVHKDIKPGNLLLTTGGTLKISDLGVAEALHPFAADDTCRTSQGSPAFQPPEIANGLDTFSGFKVDIWSAGVTLYNITTGLYPFEGDNIYKLFENIGKGSYAIPGDCGPPLSDLLKGMLEYEPAKRFSIRQIRQHSWFRKKHPPAEAPVPIPPSPDTKDRWRSMTVVPYLEDLHGADEDEDLFDIEDDIIYTQDFTVPGQVPEEEASHNGQRRGLPKAVCMNGTEAAQLSTKSRAEGRAPNPARKACSASSKIRRLSACKQQ [L54I], for which the STK11 functional score turned out to be 0.71 ± 0.19.

Regarding MEVVDPQQLGMFTEGELMSVGMDTFIHRIDSTEVIYQPRRKRAKLIGKYLMGVLLGEGSYGKVKEVLDSETLCRRAVKILKKKKLRRIPNGEANVKKEIQLLRRLRHKNVIQLVDVLYNEEKQKMYMVMEYCVCGMQEMLDSVPEKRFPVCQAHGYFCQLIDGLEYLHSQGIVHKDIKPGNLLLTTGGTLKISDLGVAEALHPFAADDTCRTSQGSPAFQPPEIANGLDTFSGFKVDIWSAGVTLYNITTGLYPFEGDNIYKLFENIGKGSYAIPGDCGPPLSDLLKGMLEYEPAKRFSIRQIRQHSWFRKKHPPAEAPVPIPPSPDTKDRWRSMTVVPYLEDLHGADEDEDLFDIEDDIIYTQDFTVPGQVPEEEASHNGQRRGLPKAVCMNGTEAAQLSTKSRAEGRAPNPARKACSASSKIRRLSACKQQ [D53V], the STK11 functional score came to 0.606 ± 0.096.

For the variant MEVVDPQQLGMFTEGELMSVGMDTFIHRIDSTEVIYQPRRKRAKLIGKYLMGSLLGEGSYGKVKEVLDSETLCRRAVKILKKKKLRRIPNGEANVKKEIQLLRRLRHKNVIQLVDVLYNEEKQKMYMVMEYCVCGMQEMLDSVPEKRFPVCQAHGYFCQLIDGLEYLHSQGIVHKDIKPGNLLLTTGGTLKISDLGVAEALHPFAADDTCRTSQGSPAFQPPEIANGLDTFSGFKVDIWSAGVTLYNITTGLYPFEGDNIYKLFENIGKGSYAIPGDCGPPLSDLLKGMLEYEPAKRFSIRQIRQHSWFRKKHPPAEAPVPIPPSPDTKDRWRSMTVVPYLEDLHGADEDEDLFDIEDDIIYTQDFTVPGQVPEEEASHNGQRRGLPKAVCMNGTEAAQLSTKSRAEGRAPNPARKACSASSKIRRLSACKQQ [D53S], the STK11 functional score is 1.51 ± 0.24.

On to MEVVDPQQLGMFTEGELMSVGMDTFIHRIDSTEVIYQPRRKRAKLIGKYLMGMLLGEGSYGKVKEVLDSETLCRRAVKILKKKKLRRIPNGEANVKKEIQLLRRLRHKNVIQLVDVLYNEEKQKMYMVMEYCVCGMQEMLDSVPEKRFPVCQAHGYFCQLIDGLEYLHSQGIVHKDIKPGNLLLTTGGTLKISDLGVAEALHPFAADDTCRTSQGSPAFQPPEIANGLDTFSGFKVDIWSAGVTLYNITTGLYPFEGDNIYKLFENIGKGSYAIPGDCGPPLSDLLKGMLEYEPAKRFSIRQIRQHSWFRKKHPPAEAPVPIPPSPDTKDRWRSMTVVPYLEDLHGADEDEDLFDIEDDIIYTQDFTVPGQVPEEEASHNGQRRGLPKAVCMNGTEAAQLSTKSRAEGRAPNPARKACSASSKIRRLSACKQQ [D53M], for which the STK11 functional score was 0.483 ± 0.2.

Regarding MEVVDPQQLGMFTEGELMSVGMDTFIHRIDSTEVIYQPRRKRAKLIGKYLMGWLLGEGSYGKVKEVLDSETLCRRAVKILKKKKLRRIPNGEANVKKEIQLLRRLRHKNVIQLVDVLYNEEKQKMYMVMEYCVCGMQEMLDSVPEKRFPVCQAHGYFCQLIDGLEYLHSQGIVHKDIKPGNLLLTTGGTLKISDLGVAEALHPFAADDTCRTSQGSPAFQPPEIANGLDTFSGFKVDIWSAGVTLYNITTGLYPFEGDNIYKLFENIGKGSYAIPGDCGPPLSDLLKGMLEYEPAKRFSIRQIRQHSWFRKKHPPAEAPVPIPPSPDTKDRWRSMTVVPYLEDLHGADEDEDLFDIEDDIIYTQDFTVPGQVPEEEASHNGQRRGLPKAVCMNGTEAAQLSTKSRAEGRAPNPARKACSASSKIRRLSACKQQ [D53W], the STK11 functional score was found to be 0.204 ± 0.082.

With MEVVDPQQLGMFTEGELMSVGMDTFIHRIDSTEVIYQPRRKRAKLIGKYLMGYLLGEGSYGKVKEVLDSETLCRRAVKILKKKKLRRIPNGEANVKKEIQLLRRLRHKNVIQLVDVLYNEEKQKMYMVMEYCVCGMQEMLDSVPEKRFPVCQAHGYFCQLIDGLEYLHSQGIVHKDIKPGNLLLTTGGTLKISDLGVAEALHPFAADDTCRTSQGSPAFQPPEIANGLDTFSGFKVDIWSAGVTLYNITTGLYPFEGDNIYKLFENIGKGSYAIPGDCGPPLSDLLKGMLEYEPAKRFSIRQIRQHSWFRKKHPPAEAPVPIPPSPDTKDRWRSMTVVPYLEDLHGADEDEDLFDIEDDIIYTQDFTVPGQVPEEEASHNGQRRGLPKAVCMNGTEAAQLSTKSRAEGRAPNPARKACSASSKIRRLSACKQQ [D53Y], the STK11 functional score stood at 1.38 ± 0.1.

In the case of MEVVDPQQLGMFTEGELMSVGMDTFIHRIDSTEVIYQPRRKRAKLIGKYLMGRLLGEGSYGKVKEVLDSETLCRRAVKILKKKKLRRIPNGEANVKKEIQLLRRLRHKNVIQLVDVLYNEEKQKMYMVMEYCVCGMQEMLDSVPEKRFPVCQAHGYFCQLIDGLEYLHSQGIVHKDIKPGNLLLTTGGTLKISDLGVAEALHPFAADDTCRTSQGSPAFQPPEIANGLDTFSGFKVDIWSAGVTLYNITTGLYPFEGDNIYKLFENIGKGSYAIPGDCGPPLSDLLKGMLEYEPAKRFSIRQIRQHSWFRKKHPPAEAPVPIPPSPDTKDRWRSMTVVPYLEDLHGADEDEDLFDIEDDIIYTQDFTVPGQVPEEEASHNGQRRGLPKAVCMNGTEAAQLSTKSRAEGRAPNPARKACSASSKIRRLSACKQQ [D53R], the STK11 functional score turned out to be 1.58 ± 0.26.

Take MEVVDPQQLGMFTEGELMSVGMDTFIHRIDSTEVIYQPRRKRAKLIGKYLMGPLLGEGSYGKVKEVLDSETLCRRAVKILKKKKLRRIPNGEANVKKEIQLLRRLRHKNVIQLVDVLYNEEKQKMYMVMEYCVCGMQEMLDSVPEKRFPVCQAHGYFCQLIDGLEYLHSQGIVHKDIKPGNLLLTTGGTLKISDLGVAEALHPFAADDTCRTSQGSPAFQPPEIANGLDTFSGFKVDIWSAGVTLYNITTGLYPFEGDNIYKLFENIGKGSYAIPGDCGPPLSDLLKGMLEYEPAKRFSIRQIRQHSWFRKKHPPAEAPVPIPPSPDTKDRWRSMTVVPYLEDLHGADEDEDLFDIEDDIIYTQDFTVPGQVPEEEASHNGQRRGLPKAVCMNGTEAAQLSTKSRAEGRAPNPARKACSASSKIRRLSACKQQ [D53P]: the STK11 functional score came out at 1.52 ± 0.36.

The record behind these values is the supplement of paper PMC12338614.
